Biological target: recombinant human aminopeptidase N (hAPN) (human) (UniProt P15144)
Experiment: enzyme inhibition assay (competition with the fluorogenic substrate H-Ala-AMC); 0.1 μM APN, 100 μM H-Ala-AMC, 100 mM Tris pH 7.2, Brij 35 0.0002% w/v, 37 °C, triplicate; inhibition competitive, Ki from the IC50 by the Cheng-Prusoff equation

| Substance | Ki [µM] | IC50 [µM] |
| --- | --- | --- |
| cyc-nHSPW (peptide) | > 500 | – |
| nDQIY (peptide) | – | > 500 |
| nHSPW (peptide) | – | 6.5 |

Reference: article PMC5431086, “The Rational Design of Therapeutic Peptides for Aminopeptidase N using a Substrate-Based Approach” (Scientific Reports, 2017)
